The nature of data set [1]: analytical size exclusion chromatography. Particulars: glycan gained; control: wild type.
The nature of data set [2]: lysyl hydroxylase activity, Succinate-Glo luminescence. The conditions noted are these: glycan gained; control: wild type.

B1: lysyl hydroxylase 3 (LH3/PLOD3): T672N (protein)
parent chain: MTSSGPGPRFLLLLPLLLPPAASASDRPRGRDPVNPEKLLVITVATAETEGYLRFLRSAEFFNYTVRTLGLGEEWRGGDVARTVGGGQKVRWLKKEMEKYADREDMIIMFVDSYDVILAGSPTELLKKFVQSGSRLLFSAESFCWPEWGLAEQYPEVGTGKRFLNSGGFIGFATTIHQIVRQWKYKDDDDDQLFYTRLYLDPGLREKLSLNLDHKSRIFQNLNGALDEVVLKFDRNRVRIRNVAYDTLPIVVHGNGPTKLQLNYLGNYVPNGWTPEGGCGFCNQDRRTLPGGQPPPRVFLAVFVEQPTPFLPRFLQRLLLLDYPPDRVTLFLHNNEVFHEPHIADSWPQLQDHFSAVKLVGPEEALSPGEARDMAMDLCRQDPECEFYFSLDADAVLTNLQTLRILIEENRKVIAPMLSRHGKLWSNFWGALSPDEYYARSEDYVELVQRKRVGVWNVPYISQAYVIRGDTLRMELPQRDVFSGSDTDPDMAFCKSFRDKGIFLHLSNQHEFGRLLATSRYDTEHLHPDLWQIFDNPVDWKEQYIHENYSRALEGEGIVEQPCPDVYWFPLLSEQMCDELVAEMEHYGQWSGGRHEDSRLAGGYENVPTVDIHMKQVGYEDQWLQLLRTYVGPMTESLFPGYHTKARAVMNFVVRYRPDEQPSLRPHHDSSTFTLNVALNHKGLDYEGGGCRFLRYDCVISSPRKGWALLHPGRLTHYHEGLPTTWGTRYIMVSFVDP
For B1, in data set [1], the oligomerisation entry was “decreases”.

B2: lysyl hydroxylase 3 (LH3/PLOD3): R714N (protein)
parent chain: B1 parent chain
On to B2, for which the oligomerisation result in data set [1] is “decreases”.

B3: lysyl hydroxylase 3 (LH3/PLOD3): W148N-L150T (protein)
parent chain: B1 parent chain
With B3, the oligomerisation result in data set [1] is recorded as “no change”. The enzymatic_activity result in data set [2] is given as “no change”.
